The values that follow come from article PMC12269619 (2025).

The term Kd denotes a measure of binding affinity in units of concentration.

B1: m42.127 Fab / Biotinylated junctional peptide Pep21 (PfCSP peptide 21) [modified: biotin (position not stated); biotin (position not stated)] [Plasmodium falciparum (clone 3D7)] (parent complex)
chain 1: QVQLVQSGAEVKKPGASVKVSCKASGYTFTSYAIHWVRQAPGQRLEWMGWIKAGNGNTRYSQKFQDRVTITRDTSASTAYMELSSLRSEDTAVYYCALLTVITPDDTFDIWGQGTMVTVSSASTKGPSVFPLAPSSKSTSGGTAALGCLVKDYFPEPVTVSWNSGALTSGVHTFPAVLQSSGLYSLSSVVTVPSSSLGTQTYICNVNHKPSNTKVDKKVEPKSCDKGLEVLFQ
chain 2: not shown
chain 3: NPDPNANPNVDPNAN

Variants of B1 are the subject of the test. The test can be described thus: BLI; read off a plot. A general note: BLI is a label-free optical method that tracks binding on a fibre tip over time.
Consider chain 1 T103K, for which the Kd was about 15 nM.
Regarding chain 1 Y32K, the Kd was about 18 nM.
For the variant chain 1 T100M, the Kd was about 24 nM.
As for chain 1 P104Q, the Kd was about 20 nM.
chain 1 P104M: the Kd was about 22 nM.
Turning to chain 1 T103R, chain 1 P104Q, the Kd is about 18 nM.
For the variant chain 1 T103R, chain 1 P104R, the Kd is about 15 nM.
